The record followed here is US20210292396A1.

Experiment [1] has as its target HIV Env of the 113-member cross-clade virus panel (Table 6). As to the kind of experiment: cell-based or functional assay.
Experiment [2] deals with HIV Env of the 106-virus cross-clade panel (Table 5). As to the kind of experiment: cell-based or functional assay.

B1: ePGT121.15.H1.L1 (antibody, V domains shown)
VH: QMQLQESGPGLVKPGETLSLTCSVSGASISSSYWSWLRETPGKGLEWIGYTHHSGDTNYAPSLKSRVHLGLHPSKNQVSLSLTSVTAADTAVYYCARTLHGRRIYGVVAFNEWFTYFYWEVWGNGTQVTVSS
VL: SDISVAPGETVRISCGGESIGSRAVQWYQHRAGQAPKLIIYNNQDRPPGIPERFSGSPDIDFGTTATLTITNVEAGDEATYYCHIWDSRRPTNWVFGGGTTLTVL
In experiment [1], B1 returned a Breadth of 76% and a GeoMean of 0.0061. In experiment [2], this molecule displayed a % Breadth of 75%; a Median IC50 of 1 ng/mL; a breadth of neutralization at an IC80 of 0.01 microg/ml of 50%; a median IC80, 106-virus panel of 9.3 ng/mL. In addition, in experiment [2], the neutralization breadth (IC80), 106-virus panel is 69%.

B2: ePGT121.15.H6.L1 (antibody, V domains shown)
VH: QMQLQESGPGLVKPGETLSLTCSVSGASISSSYWSWLRETPGKGLEWIGYTHHSGDTNYAPSLKSRVHLGLHPSKNQVSLSLTSVTAADTAVYYCARTLHGRRIYGVVAFNEFFTYFYWEVWGKGTQVTVSS
VL: SDISVAPGETVRISCGGESIGSRAVQWYQHRAGQAPKLIIYNNQDRPPGIPERFSGSPDIDFGTTATLTITNVEAGDEATYYCHIWDSRRPTNWVFGGGTTLTVL
As to B2, in experiment [1], the Breadth came to 77% and the GeoMean is 0.0048.
